{"source": "patent US20190194326A1", "about": "(UBI US, published 2019)", "binders": {"B1": {"name": "murine monoclonal antibody B4 (mAb B4) (antibody, V domains shown)", "VH": "QVQLQQSGPELVKPGASVRMSCKASGYTFTDYVIHWVKQRTGQGLEWIGEIYPGSGSAYSNAKFKDKATLTADKSSNTAYMQLSSLTSEDSAVYFCARRGNGTGFAYWGQGTLVTVSA", "VL": "DIVLTQSPASLAVSLGQRATISCKAGQSVDYDGDSYMNWYQQKPGQPPKLLIYVASNLESGIPARFSGSGSGTDFTLNIHPVEEEDAATYYCQQSYKDPLTFGAGTKLELK"}}, "target": "human CD4, membrane-bound on the surface of cells (human, UniProt P01730 26-458)", "test": "cell-based or functional assay"}
{"binder": "B1", "values": [{"measurement": "IC50, HIV entry inhibition (PhenoSense), control virus 92HT594", "value": 0.021, "unit": "µg/mL"}, {"measurement": "IC50, HIV entry inhibition (PhenoSense), control virus JRCSF", "value": 0.034, "unit": "µg/mL"}, {"measurement": "IC50, HIV entry inhibition (PhenoSense), control virus JRFL", "value": 0.074, "unit": "µg/mL"}, {"measurement": "IC50, HIV entry inhibition (PhenoSense), isolate 92/RW/008, clade A", "value": 0.026, "unit": "µg/mL"}, {"measurement": "IC50, HIV entry inhibition (PhenoSense), isolate 92/RW/024, clade A", "value": 0.055, "unit": "µg/mL"}, {"measurement": "IC50, HIV entry inhibition (PhenoSense), isolate 92/TH/005, clade EA", "value": 0.012, "unit": "µg/mL"}, {"measurement": "IC50, HIV entry inhibition (PhenoSense), isolate 92/TH/006, clade EA", "value": 0.022, "unit": "µg/mL"}, {"measurement": "IC50, HIV entry inhibition (PhenoSense), isolate 92/TH/007, clade EA", "value": 0.013, "unit": "µg/mL"}, {"measurement": "IC50, HIV entry inhibition (PhenoSense), isolate 92/TH/009, clade EA", "value": 0.021, "unit": "µg/mL"}, {"measurement": "IC50, HIV entry inhibition (PhenoSense), isolate 92/TH/019, clade EA", "value": 0.022, "unit": "µg/mL"}, {"measurement": "IC50, HIV entry inhibition (PhenoSense), isolate 92/TH/020, clade EA", "value": 0.015, "unit": "µg/mL"}, {"measurement": "IC50, HIV entry inhibition (PhenoSense), isolate 92/TH/021, clade EA", "value": 0.017, "unit": "µg/mL"}, {"measurement": "IC50, HIV entry inhibition (PhenoSense), isolate 92/TH/022, clade EA", "value": 0.012, "unit": "µg/mL"}, {"measurement": "IC50, HIV entry inhibition (PhenoSense), isolate 92/TH/024, clade EA", "value": 0.01, "unit": "µg/mL"}, {"measurement": "IC50, HIV entry inhibition (PhenoSense), isolate 92/UG/001, clade D", "value": 0.018, "unit": "µg/mL"}, {"measurement": "IC50, HIV entry inhibition (PhenoSense), isolate 92/UG/005, clade D", "value": 0.019, "unit": "µg/mL"}, {"measurement": "IC50, HIV entry inhibition (PhenoSense), isolate 92/UG/021, clade D", "value": 0.017, "unit": "µg/mL"}, {"measurement": "IC50, HIV entry inhibition (PhenoSense), isolate 92/UG/024, clade D", "value": 0.04, "unit": "µg/mL"}, {"measurement": "IC50, HIV entry inhibition (PhenoSense), isolate 92/UG/035, clade D", "value": 0.011, "unit": "µg/mL"}, {"measurement": "IC50, HIV entry inhibition (PhenoSense), isolate 92/UG/038, clade D", "value": 0.014, "unit": "µg/mL"}, {"measurement": "IC50, HIV entry inhibition (PhenoSense), isolate 92/UG/046, clade D", "value": 0.015, "unit": "µg/mL"}, {"measurement": "IC50, HIV entry inhibition (PhenoSense), isolate 92/UG/053, clade D", "value": 0.02, "unit": "µg/mL"}, {"measurement": "IC50, HIV entry inhibition (PhenoSense), isolate 92/UG/065, clade D", "value": 0.015, "unit": "µg/mL"}, {"measurement": "IC50, HIV entry inhibition (PhenoSense), isolate 93/BR/019, clade BF", "value": 0.013, "unit": "µg/mL"}, {"measurement": "IC50, HIV entry inhibition (PhenoSense), isolate 93/BR/020, clade F", "value": 0.024, "unit": "µg/mL"}, {"measurement": "IC50, HIV entry inhibition (PhenoSense), isolate 93/IN/101, clade C", "value": 0.016, "unit": "µg/mL"}, {"measurement": "IC50, HIV entry inhibition (PhenoSense), isolate 93/RW/029, clade A", "value": 0.019, "unit": "µg/mL"}, {"measurement": "IC50, HIV entry inhibition (PhenoSense), isolate 93/TH/057, clade E", "value": 0.023, "unit": "µg/mL"}, {"measurement": "IC50, HIV entry inhibition (PhenoSense), isolate 93/TH/305, clade E", "value": 0.021, "unit": "µg/mL"}, {"measurement": "IC50, HIV entry inhibition (PhenoSense), isolate 93/UG/067, clade D", "value": 0.016, "unit": "µg/mL"}, {"measurement": "IC50, HIV entry inhibition (PhenoSense), isolate 93/UG/070, clade D", "value": 0.011, "unit": "µg/mL"}, {"measurement": "IC50, HIV entry inhibition (PhenoSense), isolate 93/UG/077, clade A", "value": 0.012, "unit": "µg/mL"}, {"measurement": "IC50, HIV entry inhibition (PhenoSense), isolate 93/UG/082, clade D", "value": 0.016, "unit": "µg/mL"}, {"measurement": "IC50, HIV entry inhibition (PhenoSense), isolate 93/UG/086, clade D", "value": 0.015, "unit": "µg/mL"}, {"measurement": "IC50, HIV entry inhibition (PhenoSense), isolate 94/UG/103, clade A", "value": 0.021, "unit": "µg/mL"}, {"measurement": "IC50, HIV entry inhibition (PhenoSense), isolate 94/UG/105, clade D", "value": 0.021, "unit": "µg/mL"}, {"measurement": "IC50, HIV entry inhibition (PhenoSense), isolate 94/UG/114, clade D", "value": 0.015, "unit": "µg/mL"}, {"measurement": "IC50, HIV entry inhibition (PhenoSense), isolate 94/UG/117, clade D", "value": 0.017, "unit": "µg/mL"}, {"measurement": "IC50, HIV entry inhibition (PhenoSense), isolate 94/UG/118, clade D", "value": 0.02, "unit": "µg/mL"}, {"measurement": "IC50, HIV entry inhibition (PhenoSense), isolate 10215-6, clade C", "value": 0.018, "unit": "µg/mL"}, {"measurement": "IC50, HIV entry inhibition (PhenoSense), isolate 10362, clade C", "value": 0.02, "unit": "µg/mL"}, {"measurement": "IC50, HIV entry inhibition (PhenoSense), isolate 11657-3, clade C", "value": 0.025, "unit": "µg/mL"}, {"measurement": "IC50, HIV entry inhibition (PhenoSense), isolate 20635-4, clade C", "value": 0.02, "unit": "µg/mL"}, {"measurement": "IC50, HIV entry inhibition (PhenoSense), isolate 21068, clade C", "value": 0.011, "unit": "µg/mL"}, {"measurement": "IC50, HIV entry inhibition (PhenoSense), isolate CA1, clade A", "value": 0.011, "unit": "µg/mL"}, {"measurement": "IC50, HIV entry inhibition (PhenoSense), isolate CA2, clade A", "value": 0.018, "unit": "µg/mL"}, {"measurement": "IC50, HIV entry inhibition (PhenoSense), isolate CA3, clade A", "value": 0.019, "unit": "µg/mL"}, {"measurement": "IC50, HIV entry inhibition (PhenoSense), isolate CC1, clade C", "value": 0.016, "unit": "µg/mL"}, {"measurement": "IC50, HIV entry inhibition (PhenoSense), isolate CC2, clade C", "value": 0.021, "unit": "µg/mL"}, {"measurement": "IC50, HIV entry inhibition (PhenoSense), isolate CC3, clade C", "value": 0.012, "unit": "µg/mL"}, {"measurement": "IC50, HIV entry inhibition (PhenoSense), isolate CC4, clade C", "value": 0.013, "unit": "µg/mL"}, {"measurement": "IC50, HIV entry inhibition (PhenoSense), isolate CC5, clade C", "value": 0.019, "unit": "µg/mL"}, {"measurement": "IC50, HIV entry inhibition (PhenoSense), isolate CC6, clade C", "value": 0.018, "unit": "µg/mL"}, {"measurement": "IC50, HIV entry inhibition (PhenoSense), isolate CC7, clade C", "value": 0.013, "unit": "µg/mL"}, {"measurement": "IC50, HIV entry inhibition (PhenoSense), isolate CC8, clade C", "value": 0.019, "unit": "µg/mL"}, {"measurement": "IC50, HIV entry inhibition (PhenoSense), isolate CC9, clade C", "value": 0.02, "unit": "µg/mL"}, {"measurement": "IC50, HIV entry inhibition (PhenoSense), isolate CC10, clade C", "value": 0.015, "unit": "µg/mL"}, {"measurement": "IC50, HIV entry inhibition (PhenoSense), isolate CD1, clade D", "value": 0.016, "unit": "µg/mL"}, {"measurement": "IC50, HIV entry inhibition (PhenoSense), isolate CF2, clade F", "value": 0.016, "unit": "µg/mL"}, {"measurement": "IC50, HIV entry inhibition (PhenoSense), isolate CF3, clade F", "value": 0.024, "unit": "µg/mL"}, {"measurement": "IC50, HIV entry inhibition (PhenoSense), isolate CF4, clade F", "value": 0.019, "unit": "µg/mL"}, {"measurement": "IC50, HIV entry inhibition (PhenoSense), isolate CF5, clade F", "value": 0.018, "unit": "µg/mL"}, {"measurement": "IC50, HIV entry inhibition (PhenoSense), isolate CF6, clade F", "value": 0.018, "unit": "µg/mL"}, {"measurement": "IC50, HIV entry inhibition (PhenoSense), isolate CF7, clade F", "value": 0.019, "unit": "µg/mL"}, {"measurement": "IC50, HIV entry inhibition (PhenoSense), isolate CF8, clade F", "value": 0.017, "unit": "µg/mL"}, {"measurement": "IC50, HIV entry inhibition (PhenoSense), isolate CG1, clade G", "value": 0.018, "unit": "µg/mL"}, {"measurement": "IC50, HIV entry inhibition (PhenoSense), isolate CG2, clade G", "value": 0.027, "unit": "µg/mL"}, {"measurement": "IC50, HIV entry inhibition (PhenoSense), isolate CG3, clade G", "value": 0.016, "unit": "µg/mL"}, {"measurement": "IC50, HIV entry inhibition (PhenoSense), isolate CG4, clade G", "value": 0.013, "unit": "µg/mL"}, {"measurement": "IC50, HIV entry inhibition (PhenoSense), isolate CJ1, clade J", "value": 0.018, "unit": "µg/mL"}, {"measurement": "IC50, HIV entry inhibition (PhenoSense), isolate CJ2, clade J", "value": 0.019, "unit": "µg/mL"}, {"measurement": "IC50, HIV entry inhibition (PhenoSense), isolate CMU02, clade EA", "value": 0.011, "unit": "µg/mL"}, {"measurement": "IC50, HIV entry inhibition (PhenoSense), isolate CMU06, clade E", "value": 0.026, "unit": "µg/mL"}, {"measurement": "IC50, HIV entry inhibition (PhenoSense), isolate MW/93/959, clade C", "value": 0.019, "unit": "µg/mL"}, {"measurement": "IC50, HIV entry inhibition (PhenoSense), isolate MW/93/960, clade C", "value": 0.01, "unit": "µg/mL"}, {"measurement": "IC50, HIV entry inhibition (PhenoSense), isolate QZ4589, clade E?", "value": 0.036, "unit": "µg/mL"}, {"measurement": "average IC50, HIV entry inhibition (PhenoSense), all viruses of the table", "value": 0.018, "unit": "µg/mL"}]}
